Measurements from publication PMC4498696.
pEC50: −log10 of the molar value.

Experiments:
[1] = biological target: biotinylated prefusion RSV F DS-Cav1, subtype B (respiratory syncytial virus, subtype B | not stated) (UniProt P13843)
[2] = biological target: purified prefusion F N426D (respiratory syncytial virus, strain A2 | not stated) (UniProt P03420); assay: ELISA
[3] = biological target: full-length prefusion F N426D (RSV F residues 1-574 with the DS-Cav1 stabilizing mutations and N426D (respiratory syncytial virus, strain not stated) (UniProt P03420)); assay: flow cytometry on cells
[4] = biological target: biotinylated prefusion RSV F DS-Cav1, subtype B (respiratory syncytial virus, subtype B | not stated) (UniProt P13843); assay: Luminex bead binding assay; biotinylated RSV F proteins coupled to avidin-coated MagPlex beads (1 μg per 50,000 beads); IgG in 10-fold serial dilutions 1 μM to 0.1 pM; PE-conjugated anti-human IgG Fc; PBS, 0.1% BSA, 0.05% Tween 20
AM14 IgG (human) = assay: ELISA
Sequence of AM14 IgG (human) (heavy, as listed by the source, chain 1 of 2): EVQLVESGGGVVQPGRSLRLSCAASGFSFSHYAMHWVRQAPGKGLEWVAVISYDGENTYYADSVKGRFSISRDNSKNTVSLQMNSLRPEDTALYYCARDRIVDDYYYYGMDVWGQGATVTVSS
Sequence of AM14 IgG (human) (light, as listed by the source, chain 2 of 2): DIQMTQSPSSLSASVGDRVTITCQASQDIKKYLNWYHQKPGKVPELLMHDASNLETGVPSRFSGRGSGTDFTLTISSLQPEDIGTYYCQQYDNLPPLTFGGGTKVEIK

Row | Substance | IC50 of neutralisation of RSV subtype B strain 9320 (F of the virus), microneutralization on HEp-2 cells [1] [µg/mL] | IC50 of neutralisation of RSV subtype B strain 18537 (F of the virus), microneutralization on HEp-2 cells [1] [µg/mL] | fold reduction of binding against wild-type prefusion F [2] [fold] | fold reduction of binding against wild-type prefusion F [3] [fold] | pEC50 [4] | fold decrease in other (AM14 IgG (human)) [fold]
1 | AM14 IgG (antibody) | 0.0046 | 0.0308 | 100 | 4 | 9.74 | –
2 | cleaved monomeric RSV F (residues 1-524, without the foldon trimerization motif) (from UniProt P03420 26-109; P03420 26-524) (domain or fragment) | – | – | – | – | – | 100
